Our source for the Kd values is doi:10.1101/2023.07.12.548668.

B1: 30mer DNA (random) (dsDNA)
DNA 1: GATCCCTCTAGATATCGGGCCCTCGATCCG
DNA 2: CGGATCGAGGGCCCGATATCTAGAGGGATC
B2: 30mer GC-rich DNA (dsDNA)
DNA 1: TACCGGGGCGCGAGCCCAGCGCTCCTCCCA
DNA 2: TGGGAGGAGCGCTGGGCTCGCGCCCCGGTA
B3: 30mer AT-rich DNA (dsDNA)
DNA 1: GAAGTAAAATTAAAAAAACAAAAAGAAGCT
DNA 2: AGCTTCTTTTTGTTTTTTTAATTTTACTTC

In this data set the target is XLF (UniProt Q9H9Q4 1-299). Put plainly: NMR titration (2D lineshape, TITAN); apparent KD; NMR buffer (composition, salt and pH not in material); 800 MHz, 298 K stated for relaxation measurements; EMSA buffer not given. The settings on record: protein: recombinant; tags: N-terminal 6xHis-TEV; chain copies: 2; blunt.
Sequence of XLF (Q9H9Q4 whole entry): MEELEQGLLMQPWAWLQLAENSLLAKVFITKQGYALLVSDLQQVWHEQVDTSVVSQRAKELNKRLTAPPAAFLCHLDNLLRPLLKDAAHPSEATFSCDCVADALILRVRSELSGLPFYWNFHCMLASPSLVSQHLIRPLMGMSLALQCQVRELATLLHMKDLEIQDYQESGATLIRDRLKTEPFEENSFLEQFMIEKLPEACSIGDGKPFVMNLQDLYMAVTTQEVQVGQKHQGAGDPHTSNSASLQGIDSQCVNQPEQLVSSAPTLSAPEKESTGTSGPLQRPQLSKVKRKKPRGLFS
With B1, the Kd came out at 14.3 ± 0.9 µM. Then B2, with 6.39 ± 0.81 µM; and B3, with 4.3 ± 0.42 µM.
